Two proteins from patent publication US6699969 can be followed below.

This series has as its target taxol-stabilized microtubules prepared from bovine brain tubulin, P81947.

taxol-stabilized microtubules prepared from bovine brain tubulin, P81947, sequence (P81947 whole entry, chain 1 of 2): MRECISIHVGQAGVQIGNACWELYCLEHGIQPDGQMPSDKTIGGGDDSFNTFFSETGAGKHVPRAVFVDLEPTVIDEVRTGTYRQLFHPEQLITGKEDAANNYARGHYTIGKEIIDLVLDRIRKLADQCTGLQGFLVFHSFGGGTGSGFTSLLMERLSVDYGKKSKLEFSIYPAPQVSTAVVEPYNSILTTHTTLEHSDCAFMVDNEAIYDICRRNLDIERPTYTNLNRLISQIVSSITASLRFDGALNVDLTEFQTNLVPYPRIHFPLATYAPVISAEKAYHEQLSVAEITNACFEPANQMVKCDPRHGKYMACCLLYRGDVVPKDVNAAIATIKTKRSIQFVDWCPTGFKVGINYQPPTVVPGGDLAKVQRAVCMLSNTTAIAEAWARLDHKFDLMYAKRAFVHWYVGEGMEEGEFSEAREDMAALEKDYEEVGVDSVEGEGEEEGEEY
taxol-stabilized microtubules prepared from bovine brain tubulin, P81947, sequence (chain, as listed by the source, chain 2 of 2): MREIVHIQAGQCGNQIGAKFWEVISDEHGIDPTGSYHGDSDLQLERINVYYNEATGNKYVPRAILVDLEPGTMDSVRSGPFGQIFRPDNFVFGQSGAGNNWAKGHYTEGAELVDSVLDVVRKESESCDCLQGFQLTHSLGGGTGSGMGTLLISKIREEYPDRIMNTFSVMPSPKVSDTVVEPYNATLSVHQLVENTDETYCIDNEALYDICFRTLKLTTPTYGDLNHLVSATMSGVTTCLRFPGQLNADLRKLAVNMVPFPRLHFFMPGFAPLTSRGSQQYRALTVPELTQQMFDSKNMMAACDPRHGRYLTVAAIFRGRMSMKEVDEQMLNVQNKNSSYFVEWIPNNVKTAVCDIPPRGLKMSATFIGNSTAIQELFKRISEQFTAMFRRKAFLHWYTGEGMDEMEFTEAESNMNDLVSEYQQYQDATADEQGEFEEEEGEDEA

B1: baculovirus co-expressed S. purpuratus katanin p60/p80 heterodimer, each subunit with N-terminal His(6) tag (protein)
chain 1: MSVDEICENTKMGREYALLGNYETSLVYYQGVLQQIQKLLTSVHEPQRKHQWQTIRQELSQEYEHVKNITKTLNGFKSEPAAPEPAPNHGRAAPFSHHQHAAKPAAAEPARDPDVWPPPTPVDHRPSPPYQRAARKDPPRRSEPSKPANRAPGNDRGGRGPSDRRGDARSGGGGRGGARGSDKDKNRGGKSDKDKKAPSGEEGDEKKFDPAGYDKDLVENLERDIVQRNPNVHWADIAGLTEAKRLLEEAVVLPLWMPDYFKGIRRPWKGVLMVGPPGTGKTMLAKAVATECGTTFFNVSSASLTSKYHGESEKLVRLLFEMARFYAPSTIFIDEIDSICSKRGTGSEHEASRRVKSELLIQMDGVSGPSAGEESSKMVMVLAATNFPWDIDEALRRRLEKRIYIPLPEIDGREQLLRINLKEVPLADDIDLKSIAEKMDGYSGADITNVCRDASMMAMRRRIQGLRPEEIRHIPKEELNQPSTPADFLLALQKVSKSVGKEDLVKYMAWMEEFGSV
chain 2: MATKRAWKLQELVAHSSNVNCLALGPMSGRVMVTGGEDKKVNLWAVGKQNCIISLSGHTSPVDSVKFNSSEELVVAGSQSGTMKIYDLEPAKIVRTLTGHRNSIRCMDFHPFGEFVASGSTDTNVKLWDVRRKGCIYTYKGHSDQVNMIKFSPDGKWLVTASEDTTIKLWDLTMGKLFQEFKNHTGGVTGIEFHPNEFLLASGSSDRTVQFWDLETFQLVSSTSPGASAVRSISFHPDGSYLFCSSQDMLHAFGWEPIRCFDTFSVFWGKVADTVIASTQLIGASFNATNVSVYVADLSRMSTTGIAQEPQSQPSKTPSGGAEEVPSKPLTASGRKNFVRERPHTTSSKQRQPDVKSEPERQSPTQDEGVKDDDATDIKDPDSYAKIFSPKTRVDHSPERNAQPFPAPLDVPGAQEPEPFKHPPKPAAAAAVAPVSRAPAPSASDWQPAQANPAPNRVPAATKPVPAQEVAPSRKPDPISTIIPSDRNKPANLDMDAFLPPAHAQQAPRVNAPASRKQSDSERIEGLRKGHDSMCQVLSSRHRNLDVVRAIWTAGDAKTSVESVVNMKDQAILVDILNIMLLKKSLWNLDMCVVVLPRLKELLSSKYENYVHTSCACLKLILKNFTSLFNQNIKCPPSGIDITREERYNKCSKCYSYLIATRGYVEEKQHVSGKLGSSFRELHLLLDQLE
Turning to B1, the “ATPase activity (ATP turnover), stimulation by microtubules” value is reported as “this activity was stimulated ~10-fold by microtubules”; the “maximal microtubule-stimulated ATPase rate” value is reported as “maximal microtubule-stimulated rate of 3 ATP/katanin/sec”; the “microtubule concentration at peak ATPase stimulation” value is listed as “peak at ~2 uM tubulin”; the “microtubule severing, fluorescence microscopy assay” value was “Both p60 and p60/p80 severed microtubules in this assay”.

B2: baculovirus-expressed S. purpuratus katanin p60 subunit with N-terminal His(6) tag (protein)
chain: B1 chain 1
Regarding B2, the “microtubule concentration at peak ATPase stimulation” value is recorded as “peak at ~2 uM tubulin”; the “microtubule severing, fluorescence microscopy assay” value is “Both p60 and p60/p80 severed microtubules in this assay”; the “microtubule-stimulated ATPase activity” value is on record as “p60 alone displayed a microtubule-stimulated ATPase activity”.
